# Laboratory results: US20250340654A1 (INTERVET, published 2025)
# Numbering of substitutions follows the chain as printed.
# T1: Canine IL-31RA ECD-10His (canine, biotin-labeled in the Octet assay (site not stated))
# T1 construct: The ELISA and Octet protocols say only 'IL-31RA' or 'canine IL-31RA'; also called cIL-31RA; canine IL-31 receptor alpha extracellular domain, HIS-tagged
# T1 chain: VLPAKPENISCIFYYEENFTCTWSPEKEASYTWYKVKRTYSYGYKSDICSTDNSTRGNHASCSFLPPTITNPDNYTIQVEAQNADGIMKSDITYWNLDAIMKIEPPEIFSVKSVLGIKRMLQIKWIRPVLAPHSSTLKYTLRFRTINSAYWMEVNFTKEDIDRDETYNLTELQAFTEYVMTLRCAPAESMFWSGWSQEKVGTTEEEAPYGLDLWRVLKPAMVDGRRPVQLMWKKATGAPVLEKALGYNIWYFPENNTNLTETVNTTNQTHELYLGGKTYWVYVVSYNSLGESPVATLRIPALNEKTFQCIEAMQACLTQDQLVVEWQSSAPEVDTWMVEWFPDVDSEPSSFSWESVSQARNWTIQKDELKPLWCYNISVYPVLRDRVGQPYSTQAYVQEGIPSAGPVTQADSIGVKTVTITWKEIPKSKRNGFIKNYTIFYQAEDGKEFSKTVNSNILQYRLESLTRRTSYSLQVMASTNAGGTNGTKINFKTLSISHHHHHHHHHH
# B1: Chimeric 100H8 (antibody, V domains shown)
# VH: EVQLQQSGPELVKPGASVKIPCKASGYTFTDYNMDWVKQSHGKSLEWIGHINPNNGGILYNQKFKGKATLTVDRSSNTAYMELRSLTSEDTAVYFCARWAPLVRQPYWYFDVWGTGTTVTVSS
# VL: DIKMTQSPSSIFASLGERVTITCKASQDINSYLNWFQQKPGKSPKTLIYRADRLVDGVPSRFSGSGSGQDYSLTISSLEYEDMGIYYCLQYDEFPLTFGAGTKLELN
# notes: also called murine-canine chimeric 100H8
# B2: c100H8VH7VL4 (antibody, V domains shown)
# VH: EVQLVQSGAEVKKPGASVKVSCKASGYTFTDYNMDWVRQAPGAGLDWIGHINPNNGGILYNQKFKGKATLTADTSTSTAYMELSSLRAGDIAVYYCARWAPLVRQPYWYFDVWGQGTLVTVSS
# VL: DIVMTQTPLSLSVSPGETASISCKASQDINSYLNWFRQKPGQSPQLLIYRADRLVDGVPDRFSGSGSGTDFTLRISTVEADDTGVYYCLQYDEFPLTFGAGTKVELKR
# notes: Caninized antibody; chains tied by name to c100H8VH7-cIgGBm and c100H8VL4-cCK; also called c100H8VH7L4
# B3: c51F8VH3VL6 (antibody, V domains shown)
# VH: EVQLVQSGAEVKKPGASVKVSCTASGFNIKNTFIHWVRQAPGAGLDWIGRIDPANGNTKYAPKFQGRATLTADTSTNTAYMQLSSLRAGDIAVYYCARYYYVSSYFDVWGQGTLVTVSS
# VL: DIVMTQTPLSLSVSPGETASISCKASQSVTNDVTWFRQKPGQSPQLLIYSASNRYTGVPDRFSGSGSGTDFTLRISTVEADDTGVYYCQQDYSSPWTFGQGTKLEIKR
# notes: Caninized antibody; chains tied by name to c51F8VH3-cIgGBm and c51F8VL6-cCK; also called c51F8VH3L6
# B4: c51F8VH4VL7 (antibody, V domains shown)
# VH: B3 VH with K12V, A40R, Q111T
# VL: B3 VL with Q45K
# notes: Caninized antibody; chains tied by name to c51F8VH4-cIgGBm and c51F8VL7-cCK; also called c51F8VH4L7
# B5: c51F8VH4VL6 (antibody, V domains shown)
# VH: B3 VH with K12V, A40R, Q111T
# VL: B3 VL
# notes: Caninized antibody; chains tied by name to c51F8VH4-cIgGBm and c51F8VL6-cCK; also called c51F8VH4L6
# B6: c51F8VH3VL7 (antibody, V domains shown)
# VH: B3 VH
# VL: B3 VL with Q45K
# notes: Caninized antibody; chains tied by name to c51F8VH3-cIgGBm and c51F8VL7-cCK; also called c51F8VH3L7
# B7: Chimeric 85C10 (antibody, V domains shown)
# VH: EFQLQQSGPELVKPGASVKISCKASGYSFTDYSINWVKQSNGKSLEWIGVINPNYGTSSHNQKFKGKATMTVDQSSSTAYMQLNSLTSEDSAVYYCARALDDYYFYWYFDVWGIGTTVTVSS
# VL: DVVMTQTPLSLPVSLGDQASISCRSSQSLVHTNGNTYLHWYLQKPGQSPKLLIYKVSNRFSGVPDRFSGSGSGTDFTLKISRVEAEDLGVYFCSQTTHVPLTFGAGTKLELK
# notes: canine constant regions not specified; also called murine-canine chimeric 85C10
# B8: Chimeric 218D9 (antibody, V domains shown)
# VH: QVTLKESGPGILQPSQTLSLTCSFSGFSLSTFGRGVGWIRQPSGKGLDWLTHIWWDDDKYYNPALKSRLTISKDTSKNQVFLKIANVDTADTATYYCARIAGGLRRAPYAMDSWGQGTSVTVSS
# VL: DIQMTQSPASLSVSVGETVTITCRASENIYSSLAWYQQKQGKSPQLLVYAATNLADGVPSRFSGSGSGTQYSLKINSLQSEDSGNYYCQHFRDTPPTFGGGTKLEIK
# notes: canine constant regions not specified; also called mouse-canine chimeric 218D9 antibody
# B9: Chimeric 51F8 (antibody, V domains shown)
# VH: EVQLQQSVAELVRPGASVKLSCTASGFNIKNTFIHWVKQRPEQGLEWIGRIDPANGNTKYAPKFQGRATLTADTSSNTAYLQLSSLTSEDTAIYYCARYYYVSSYFDVWGTGTTVTVSS
# VL: SIVMTQTPKFLLVSAGDRVTITCKASQSVTNDVTWYQQKPGQSPKLLIFSASNRYTGVPDRFTGSGYGTDFTFTISTVQAEDLAVYFCQQDYSSPWTFGGGTKLEIK
# notes: canine constant regions not specified; also called murine-canine chimeric 51F8
# B10: Chimeric 224G3 (antibody, V domains shown)
# VH: EVQLVESGGDLVKPGGSLKLSCAASGFTFSSYGMSWVRQTPDKRLEWVATISNGGSYTYYPDSVKGRFTISRDNAKNTLYMQMSSLKSEDTAMYYCARNEPPDYWGQGTSVTVSS
# VL: QIVLTQSPAIMSASLGERVTMTCTASSSVGSSYLHWYQQKPGSSPKLWIYDTSNLASGVPVRFSGSGSGTSYSLTISSMEAEDAATYYCHQYHRSPYTFGGGTKLEIK
# notes: canine constant regions not specified; also called m224G3 Chim
# B11: 100H8 (antibody, V domains shown)
# VH: B1 VH
# VL: B1 VL
# notes: Mouse monoclonal antibody from a hybridoma; also called mouse mAb 100H8
# B12: 222E7 (antibody, V domains shown)
# VH: B1 VH with A16S, N55I, I58T, T71S, R74K, N77S, F95Y, P101Q, V103Q, T115P
# VL: B1 VL with I11M, F12Y, A51V, D52N, N107K
# notes: Mouse monoclonal antibody from a hybridoma; also called mouse mAb 222E7
# B13: 74H10 (antibody, V domains shown)
# VH: B1 VH with V18M, A24T, I58T, G66D, F95Y, V103L
# VL: B1 VL with I11M, F12Y, A100D
# notes: Mouse monoclonal antibody from a hybridoma; also called mouse mAb 74H10
# B14: 55B3 (antibody, V domains shown)
# VH: B1 VH with N55T, I58T, L59I, R74K, N77S, E82D, F95Y, P101Q, V103L
# VL: B1 VL with I11M, F12Y, L33F, F36V, Y49F, D52N, S76N, N107K
# notes: Mouse monoclonal antibody from a hybridoma; also called mouse mAb 55B3
# B15: 65G9 (antibody, V domains shown)
# VH: EFQLQQSGPELVKPGASVKISCKASGYSFTDYGMNWLKQINGKSLEWIAIINPNYGTASSNPKFKDKATLTVDHSSSTAYMQLSSLTSEDSAVYYCARAFDGYYFYWYFDVWGTGTTVTVSS
# VL: B7 VL with V30I, V83L, T96S, K112R
# notes: Mouse monoclonal antibody from a hybridoma; also called mouse mAb 65G9
# B16: 51F8 (antibody, V domains shown)
# VH: B9 VH
# VL: B9 VL
# notes: Mouse monoclonal antibody from a hybridoma; also called mouse mAb 51F8
# Target: T1, Canine IL-31RA ECD-10His
# Assay: ELISA on coated canine IL-31RA, anti-canine IgG Fc-HRP (Example 11), the unit is that of the x axis 'Ab Log Conc. (ng/mL)'
# Protocol: 1. Coat 200 ng/well of IL-31RA on an immunoplate and incubate the plate at 4° C. overnight. [0257] 2. Wash the plate 3 times with phosphate buffered saline (PBS) containing 0.05% Tween 20 (PBST). […] 3. Block the plate with 0.5% bovine serum albumin (BSA) in PBS for 45-60 min at room temperature. [0259] 4. Wash the plate 3 times with PBST. [0260] 5. Three-fold dilute the caninized antibody in each column or row of dilution plate starting at 0.3 μg/mL. [0261] 6. Transfer the diluted caninized antibody into each column or row of the immunoplate, and incubate the plate for 45-60 min at room temperature. [0262] 7. Wash the plate 3 times with PBST. [0263] 8. Add 1:4000 diluted horseradish peroxidase labeled anti-canine IgG Fc into each well of the plate, and then incubate the plate for 45-60 min at room temperature. [0264] 9. Wash the plate 3 times with PBST. [0265] 10. Add 3,3′,5,5′-tetramethylbenzidine (TMB) Substrate into each well of the plate, and incubate the plate for 10 to 15 min at room temperature to develop the color. [0266] 11. Add 100 μL 1.5 M phosphoric acid into each well to stop the reaction. Read plate at 450 nm with 540 nm reference wavelength.
# As depicted in FIGS. 7A-7E, the caninized antibodies were tested for their reactivity to canine IL-31RA.
row,EC50 [ng/mL],Binder
1,2.02,B1
2,0.581,B2
3,16.9,B3
4,11.3,B4
5,8.31,B5
6,25,B6
7,2.58,B7
8,3.15,B8
9,3.42,B9
10,0.383,B10

# Target: T1, Canine IL-31RA ECD-10His
# Assay: BLI (Octet HTX), biotin-labeled canine IL-31RA on SA biosensors, 1:1 fit
# Protocol: These constants reflect the binding affinity of the individual monoclonal antibodies for canine IL-31 RA.
# (§1) All kinetics measurements were performed by Octet HTX using SA biosensors and Data Acquisition 12.0 software. A biotin-labeled antigen (canine IL-31RA) was loaded onto the pre-rehydrated SA biosensors for 120s at a concentration of 1 μg/mL. Next, the biosensors were placed into Octet Kinetics Buffer (PBS+0.02% Tween 20, 0.1% BSA) for the blocking phase for 120s. Then, for the association phase, antigen loaded biosensors were placed into 2-fold serial dilutions from 100 nM down to 3.13 nM of anti-IL-31RA monoclonal antibody in Octet Kinetics Buffer for 300s. The last well was buffer alone and that sensor was used for reference sensor subtraction. Finally, the biosensors were placed into Octet Kinetics Buffer for the dissociation phase for 300s. Analysis was performed using Data Analysis 12.0 software and curves were fitted using a 1:1 binding model.
Kd [pM],koff [s⁻¹],kon [M⁻¹ s⁻¹],Binder
152,0.00012,788000,B11
174,0.000282,1.62e+06,B12
196,9.05e-05,463000,B13
272,0.000154,568000,B14
451,0.000355,787000,B15
207,0.000141,684000,B16

# Target: T1, Canine IL-31RA ECD-10His
# Assay: BLI (Octet), biotin-labeled canine IL-31RA on SA biosensors
# Protocol: as §1
# Two of the top blocking antibodies: 51F8 and 218D9, had KDs of about 0.2 nM and about 0.07 nM respectively (see, Table 5B below).
Kd [pM],koff [s⁻¹],kon [M⁻¹ s⁻¹],Binder
2670,0.00114,428000,B3
1230,0.000512,416000,B4
1010,0.000448,445000,B5
3990,0.0016,401000,B6
69.8,4.63e-05,664000,B8
207,0.000141,684000,B9

# Target: T2, canine IL-31 receptor complex (IL-31RA and OSMR) on Ba/f3-OI cells (canine)
# Assay: cell-based or functional assay
row,"IC50, inhibition of IL-31 mediated STAT-3 phosphorylation in Ba/f3-OI cells [pM]",Binder
1,~2200,B8

# Target: T2, canine IL-31 receptor complex (IL-31RA …)
# Assay: cell-based or functional assay
# Remark: another data set of the same source
row,"IC50: inhibition of IL-31 mediated STAT-3 phosphorylation in Ba/f3-OI cells (AlphaLISA p-STAT3), the unit is that of the x axis 'Antibody Log Conc. (nM)' [nM]",Binder
1,2.24,B8
